Laboratory results published in patent US20060024300A1.

What was measured:
CD20 (human) [1] = molecular target: CD20 (human) (UniProt P11836); experiment: cell-based or functional assay
CD20 (human) [2] = molecular target: CD20 (human) (UniProt P11836); experiment: Scatchard analysis, cold antibody against 125I-2H7.v16 on WIL2-S cells

CD20 (human), sequence (P11836 whole entry): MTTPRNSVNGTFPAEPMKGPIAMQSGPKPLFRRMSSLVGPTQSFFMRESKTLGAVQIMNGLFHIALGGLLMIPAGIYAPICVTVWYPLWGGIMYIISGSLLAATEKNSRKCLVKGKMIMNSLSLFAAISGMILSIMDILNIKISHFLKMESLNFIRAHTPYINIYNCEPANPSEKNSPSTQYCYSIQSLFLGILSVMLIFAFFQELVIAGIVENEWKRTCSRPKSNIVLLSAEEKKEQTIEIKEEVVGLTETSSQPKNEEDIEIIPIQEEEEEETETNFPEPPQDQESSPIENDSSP

For Rituxan (rituximab) (antibody), the ADCC on WIL2-S cells, EC50(variant)/EC50(2H7.v16) (CD20 (human) [1]) was 5.3, the ADCC on WIL2-S cells, EC50(variant)/EC50(Rituxan) (CD20 (human) [1]) was 1 and the CDC on WIL2-S cells, EC50(variant)/EC50(Rituxan) (CD20 (human) [1]) was 1. For the same substance, the fraction of Annexin V stained Ramos cells at 10 nM crosslinked antibody (CD20 (human) [1]) was 16.5%, the fraction of doubly labeled (Annexin V and propidium iodide) Ramos cells at 10 nM (CD20 (human) [1]) was 38% and the live Ramos cells counted per 10 s at 10 nM (cells per 10 s) (CD20 (human) [1]) was 3100. The Kd (CD20 (human) [2]) was 0.99 nM.
